Like-named read-outs stand apart in the source and are kept apart here.
B1: Ffh (natural protein)
chain: MFDNLTDRLSRTLRNISGRGRLTEDNVKDTLREVRMALLEADVALPVVREFINRVKEKAVGHEVNKSLTPGQEFVKIVRNELVAAMGEENQTLNLAAQPPAVVLMAGLQGAGKTTSVGKLGKFLREKHKKKVLVVSADVYRPAAIKQLETLAEQVGVDFFPSDVGQKPVDIVNAALKEAKLKFYDVLLVDTAGRLHVDEAMMDEIKQVHASINPVETLFVVDAMTGQDAANTAKAFNEALPLTGVVLTKVDGDARGGAALSIRHITGKPIKFLGVGEKTEALEPFHPDRIASRILGMGDVLSLIEDIESKVDRAQAEKLASKLKKGDGFDLNDFLEQLRQMKNMGGMASLMGKLPGMGQIPDNVKSQMDDKVLVRMEAIINSMTMKERAKPEIIKGSRKRRIAAGCGMQVQDVNRLLKQFDDMQRMMKKMKKGGMAKMMRSMKGMMPPGFPGR
B2: Ffh, P0AGD7 1-453 (natural protein)
chain: B1 chain

Columns and labels:
[1] = target: ΔEspP peptide labeled with carboxyfluorescein; assay: fluorescence polarisation
[2] = target: ΔEspP peptide labeled with carboxyfluorescein; assay: fluorescence polarisation; remark: listed apart in the source
[3] = target: ΔEspP peptide labeled with carboxyfluorescein; assay: fluorescence polarisation; remark: listed apart in the source
[4] = target: ΔEspP peptide labeled with carboxyfluorescein; assay: fluorescence polarisation; remark: listed apart in the source
[5] = target: T1, FtsY (Escherichia coli), P10121; assay: other fluorescence titration; conditions: remark: other sources report otherwise
T1 chain: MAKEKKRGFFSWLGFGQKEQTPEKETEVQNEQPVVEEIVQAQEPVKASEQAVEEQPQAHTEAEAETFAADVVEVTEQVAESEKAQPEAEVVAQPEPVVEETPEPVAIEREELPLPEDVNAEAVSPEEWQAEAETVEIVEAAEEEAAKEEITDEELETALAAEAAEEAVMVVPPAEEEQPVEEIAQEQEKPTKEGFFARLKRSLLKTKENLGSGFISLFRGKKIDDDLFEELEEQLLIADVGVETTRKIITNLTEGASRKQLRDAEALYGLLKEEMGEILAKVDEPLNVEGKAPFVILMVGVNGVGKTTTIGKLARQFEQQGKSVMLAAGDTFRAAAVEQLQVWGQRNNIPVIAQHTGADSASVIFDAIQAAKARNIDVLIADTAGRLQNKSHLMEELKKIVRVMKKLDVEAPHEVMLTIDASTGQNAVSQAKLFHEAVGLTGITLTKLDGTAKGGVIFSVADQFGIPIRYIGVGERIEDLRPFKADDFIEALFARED

Binder | Kd [1] [µM] | Kd [2] [µM] | Kd [3] [µM] | Kd [4] [µM] | fold change of the association rate with C12E8 against without (with 4.5S RNA) [5] [fold] | fold change of the association rate with ΔEspP* against without (with 4.5S RNA) [5] [fold] | fold change of the dissociation rate with C12E8 against without (with 4.5S RNA) [5] [fold] | fold change of the dissociation rate with ΔEspP* against without (with 4.5S RNA) [5] [fold]
B1 | 5.5 | 19.6 | 21.6 | 1.5 |  |  |  | 
B2 |  |  |  |  | 70 | > 40 | 23 | 10
